Assays:
[1] = target: HIV-1 Env of pseudovirus NIH-087_P1981 C5 3 (clade G) (HIV-1); test: cell-based or functional assay
[2] = target: HIV-1 Env of pseudovirus NIH-078_BJOX015000.11.5 (HIV-1); test: cell-based or functional assay
[3] = target: HIV-1 Env of isolate COT6, mutant D674T (HIV-1); test: cell-based or functional assay
[4] = target: HIV-1 Env of pseudovirus NAC_92BR020 (HIV-1); test: cell-based or functional assay
[5] = target: HIV-1 Env of isolate COT6, mutant D674E (HIV-1); test: cell-based or functional assay
[6] = target: HIV-1 Env of NIH-107_T251.18 (HIV-1); test: cell-based or functional assay
[7] = target: HIV-1 Env of NIH-035_Ce1176 A3 (HIV-1); test: cell-based or functional assay
[8] = target: HIV-1 Env of NIH-065_191955 A11 (HIV-1); test: cell-based or functional assay
[9] = target: HIV-1 Env of pseudovirus NIH-117_T278.5 (HIV-1); test: cell-based or functional assay
[10] = target: HIV-1 Env of pseudovirus NIH-001_6535.3 (HIV-1); test: cell-based or functional assay
[11] = target: HIV-1 Env of pseudovirus NIH-114_T257.31 (HIV-1); test: cell-based or functional assay
[12] = target: HIV-1 Env of NIH-018_Du172.17 (HIV-1); test: cell-based or functional assay
[13] = target: HIV-1 Env of pseudovirus NIH-059_Q461ENVe2 (HIV-1); test: cell-based or functional assay
[14] = target: HIV-1 Env of NIH-078_BJOX015000.11.5 (HIV-1); test: cell-based or functional assay
[15] = target: HIV-1 Env of NIH-056_Q168ENVa2 (HIV-1); test: cell-based or functional assay
[16] = target: HIV-1 Env of isolate Du156.12 (HIV-1); test: cell-based or functional assay
[17] = target: HIV-1 Env of isolate NIH-098_89.F1 2 25 (HIV-1); test: cell-based or functional assay
[18] = target: HIV-1 Env of NIH-010_1054.07.TC4.1499 (HIV-1); test: cell-based or functional assay
[19] = target: HIV-1 Env of pseudovirus NIH-068_620345.c01 (HIV-1); test: cell-based or functional assay
[20] = target: HIV-1 Env of pseudovirus NAC_BaL.26 (HIV-1); test: cell-based or functional assay
[21] = target: HIV-1 Env of NIH-064_0260.v5.c1 (HIV-1); test: cell-based or functional assay
[22] = target: HIV-1 Env of NIH-031_HIV-16055.2.3 (HIV-1); test: cell-based or functional assay
[23] = target: HIV-1 Env of pseudovirus NIH-044_ZM247F.F7 (HIV-1); test: cell-based or functional assay
[24] = target: HIV-1 Env of NIH-054_CNE53 (HIV-1); test: cell-based or functional assay
[25] = target: HIV-1 Env of pseudovirus NAC_JRCSF (HIV-1) (UniProt P20871); test: cell-based or functional assay
[26] = target: HIV-1 Env of NAC_92TH021 (HIV-1); test: cell-based or functional assay
[27] = target: HIV-1 Env of NIH-030_HIV-0013095.2.11 (HIV-1); test: cell-based or functional assay
[28] = target: HIV-1 Env of NIH-117_T278.5 (HIV-1); test: cell-based or functional assay
[29] = target: HIV-1 Env of NHI-028_CAP210.E8 (HIV-1); test: cell-based or functional assay
[30] = target: HIV-1 Env of NIH-081_BJOX028000.10.3 (HIV-1); test: cell-based or functional assay
[31] = target: HIV-1 Env of pseudovirus NIH-014_6244.13.B5.4567 (HIV-1); test: cell-based or functional assay
[32] = target: HIV-1 Env of NIH-005_TRO.11 (HIV-1); test: cell-based or functional assay
[33] = target: HIV-1 Env of NIH-008_WEAU.d15.410.787 (HIV-1); test: cell-based or functional assay
[34] = target: HIV-1 Env of NIH-061_Q259ENVd2.17 (HIV-1); test: cell-based or functional assay
[35] = target: HIV-1 Env of pseudovirus NIH-034_Ce0393 C3 (HIV-1); test: cell-based or functional assay
[36] = target: HIV-1 Env of isolate COT6 (wild-type) (HIV-1); test: cell-based or functional assay
full-length MPER peptide = test: ELISA on peptide MPER (654-683), antibody titrated
[37] = target: HIV-1 Env of isolate COT6, mutant D674S (HIV-1); test: cell-based or functional assay
[38] = target: HIV-2 C3 chimera Env (HIV-2 (HIV-1 MPER) chimera); test: cell-based or functional assay
[39] = target: HIV-2 Env (parental virus of the chimeras) (HIV-2); test: cell-based or functional assay
[40] = target: HIV-1 Du156.12 Env (HIV-1 Du156.12); test: cell-based or functional assay
[41] = target: HIV-2 C4 chimera Env (HIV-2 (HIV-1 MPER) chimera); test: cell-based or functional assay
[42] = target: HIV-2 C1 chimera Env (HIV-2 (HIV-1 MPER) chimera); test: cell-based or functional assay
4E10-specific peptide = test: ELISA on peptide MPER (671-683), antibody titrated

Substance: VRC01 (antibody)
- IC50 (µg/ml), TZM-bl cell neutralization assay, pseudovirus [1]: 0.203 µg/mL
- neutralization IC50 [2]: 0.06 µg/mL
- Fold increase in IC50 relative to wild-type COT6 [3]: 1 fold
- neutralization IC50 [4]: 0.059 µg/mL
- Fold increase in IC50 relative to wild-type COT6 [5]: 1.2 fold
- IC80 neutralization [6]: 8.63 µg/mL
- IC80 neutralization [7]: 4.99 µg/mL
- IC80 neutralization [8]: 0.467 µg/mL
- neutralization IC50 [9]: > 50 µg/mL
- neutralization IC50 [10]: 0.946 µg/mL
- neutralization IC50 [11]: 1.61 µg/mL
- IC80 neutralization [12]: > 50 µg/mL
- neutralization IC50 [13]: 0.195 µg/mL
- IC80 neutralization [14]: 0.242 µg/mL
- IC80 neutralization [15]: 0.218 µg/mL
- Fold change (IC50 wash)/(IC50 no wash) [16]: 1.5 fold
- IC50 (µg/ml), no wash [16]: 0.11 µg/mL
- IC50 (µg/ml), wash [16]: 0.16 µg/mL
- IC80 (µg/ml), TZM-bl pseudovirus neutralization [17]: > 50 µg/mL
- IC80 neutralization [18]: 3.62 µg/mL
- neutralization IC50 [19]: > 50 µg/mL
- neutralization IC50 [20]: 0.01 µg/mL
- IC80 neutralization [21]: 0.516 µg/mL
- IC80 neutralization [22]: 0.206 µg/mL
- neutralization IC50 [23]: 0.236 µg/mL
- IC80 neutralization [24]: 0.166 µg/mL
- neutralization IC50 [25]: 0.172 µg/mL
- IC80 neutralization [26]: 1.31 µg/mL
- IC80 neutralization [27]: 0.058 µg/mL
- IC80 neutralization [28]: > 50 µg/mL
- IC80 neutralization [29]: > 50 µg/mL
- IC80 neutralization [30]: 0.573 µg/mL
- neutralization IC50 [31]: 0.045 µg/mL
- IC80 neutralization [32]: 0.912 µg/mL
- IC80 neutralization [33]: 0.306 µg/mL
- IC80 neutralization [34]: 0.449 µg/mL
- neutralization IC50 [35]: 0.37 µg/mL
- Fold increase in IC50 (wild-type COT6, the reference) [36]: 1 fold

Substance: 4E10 (antibody)
- EC50 (read off the curve) (full-length MPER peptide): 0.03 µg/mL
- IC50 (µg/ml), TZM-bl cell neutralization assay, pseudovirus [1]: 0.099 µg/mL
- neutralization IC50 [2]: 0.165 µg/mL
- Fold increase in IC50 relative to wild-type COT6 [3]: 25 fold
- neutralization IC50 [4]: 2.57 µg/mL
- Fold increase in IC50 relative to wild-type COT6 [5]: 10 fold
- IC80 neutralization [6]: 3.97 µg/mL
- IC80 neutralization [7]: 7.36 µg/mL
- IC80 neutralization [8]: 0.157 µg/mL
- neutralization IC50 [9]: 1.48 µg/mL
- neutralization IC50 [10]: 0.519 µg/mL
- neutralization IC50 [11]: 1.03 µg/mL
- IC80 neutralization [12]: 0.474 µg/mL
- neutralization IC50 [13]: 2.33 µg/mL
- Fold increase in IC50 relative to wild-type COT6 [37]: 1.65 fold
- IC80 neutralization [14]: 0.647 µg/mL
- IC80 neutralization [15]: 15.1 µg/mL
- IC80 (µg/ml), TZM-bl pseudovirus neutralization [17]: 21.7 µg/mL
- IC80 neutralization [18]: 5.43 µg/mL
- IC50 (µg/ml), neutralization of chimeric virus [38]: > 10 µg/mL
- IC50 (µg/ml), neutralization of HIV-2 [39]: > 10 µg/mL
- neutralization IC50 [19]: 0.663 µg/mL
- neutralization IC50 [20]: 4.2 µg/mL
- IC80 neutralization [21]: 6.08 µg/mL
- IC80 neutralization [22]: 6.57 µg/mL
- neutralization IC50 [23]: 1.85 µg/mL
- IC80 neutralization [24]: 1.52 µg/mL
- IC50 (µg/ml), neutralization of HIV-1 Du156.12 [40]: 0.101 µg/mL
- neutralization IC50 [25]: 0.823 µg/mL
- IC80 neutralization [26]: 1.38 µg/mL
- IC80 neutralization [27]: 0.258 µg/mL
- IC80 neutralization [28]: 6.03 µg/mL
- IC80 neutralization [29]: 3.53 µg/mL
- IC50 (µg/ml), neutralization of chimeric virus [41]: 1.41 µg/mL
- IC80 neutralization [30]: 1.88 µg/mL
- neutralization IC50 [31]: 0.077 µg/mL
- IC80 neutralization [32]: 3.08 µg/mL
- IC80 neutralization [33]: 2.59 µg/mL
- IC80 neutralization [34]: 28.9 µg/mL
- neutralization IC50 [35]: 0.606 µg/mL
- Fold increase in IC50 (wild-type COT6, the reference) [36]: 1 fold
- IC50 (µg/ml), neutralization of chimeric virus [42]: 0.8 µg/mL
- EC50 (read off the curve) (4E10-specific peptide): 0.02 µg/mL

Substance: PGZL1 (antibody)
- EC50 (read off the curve) (full-length MPER peptide): 0.02 µg/mL
- IC50 (µg/ml), TZM-bl cell neutralization assay, pseudovirus [1]: 1.39 µg/mL
- neutralization IC50 [2]: 2.59 µg/mL
- neutralization IC50 [4]: > 50 µg/mL
- IC80 neutralization [6]: > 50 µg/mL
- IC80 neutralization [7]: > 50 µg/mL
- IC80 neutralization [8]: 8.56 µg/mL
- neutralization IC50 [9]: 23.5 µg/mL
- neutralization IC50 [10]: 1.42 µg/mL
- neutralization IC50 [11]: 29.6 µg/mL
- IC80 neutralization [12]: 1.6 µg/mL
- neutralization IC50 [13]: 20.2 µg/mL
- IC80 neutralization [14]: 10.5 µg/mL
- IC80 neutralization [15]: > 50 µg/mL
- IC80 (µg/ml), TZM-bl pseudovirus neutralization [17]: > 50 µg/mL
- IC80 neutralization [18]: 20.2 µg/mL
- neutralization IC50 [19]: 12.6 µg/mL
- neutralization IC50 [20]: > 50 µg/mL
- IC80 neutralization [21]: > 50 µg/mL
- IC80 neutralization [22]: 42.6 µg/mL
- IC80 neutralization [24]: 23.9 µg/mL
- neutralization IC50 [25]: 13.4 µg/mL
- IC80 neutralization [26]: 8.27 µg/mL
- IC80 neutralization [27]: 0.113 µg/mL
- IC80 neutralization [28]: > 50 µg/mL
- IC80 neutralization [29]: > 50 µg/mL
- IC80 neutralization [30]: 20.9 µg/mL
- neutralization IC50 [31]: 1.31 µg/mL
- IC80 neutralization [32]: 11.8 µg/mL
- IC80 neutralization [33]: 39.6 µg/mL
- IC80 neutralization [34]: > 50 µg/mL
- neutralization IC50 [35]: 13.5 µg/mL
- EC50 (read off the curve) (4E10-specific peptide): 0.02 µg/mL

Reference: US20240124560A1
